In US20260125472A1 (HEFEI TG IMMUNOPHARMA, published 2026):

Experiments:
[1] = biological target: T1, Trop2 protein (UniProt P09758 27-274); experiment: ELISA, coated Trop2 protein, OD450
T1 construct: Bought recombinant protein; also called Trop2-Biotin protein (biotin-labelled, bridging ELISA)
T1 sequence (looked up): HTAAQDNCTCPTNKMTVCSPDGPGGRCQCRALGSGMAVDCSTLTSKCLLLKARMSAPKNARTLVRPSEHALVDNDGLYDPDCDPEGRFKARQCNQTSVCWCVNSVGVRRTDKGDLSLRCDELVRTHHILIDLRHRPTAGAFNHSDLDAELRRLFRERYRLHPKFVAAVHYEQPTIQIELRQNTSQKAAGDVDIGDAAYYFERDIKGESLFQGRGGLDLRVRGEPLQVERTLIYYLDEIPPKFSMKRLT
How it was run: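 Plates coated overnight at 4° C with Trop2 at 2 μg/ml, blocked with PBS/10% BSA; serially diluted bispecifics bound 1 h at 37° C. Detection by HRP anti-human Fab secondary, TMB 3 min, acid stop, OD450.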

[2] = biological target: T2, Trop2 on A-375-Trop2 melanoma cells (UniProt P09758 27-323, limits assumed); experiment: flow cytometry, A-375-Trop2 cells, MFI [panel B]
T2 construct: whole, on cells
T2 sequence (looked up): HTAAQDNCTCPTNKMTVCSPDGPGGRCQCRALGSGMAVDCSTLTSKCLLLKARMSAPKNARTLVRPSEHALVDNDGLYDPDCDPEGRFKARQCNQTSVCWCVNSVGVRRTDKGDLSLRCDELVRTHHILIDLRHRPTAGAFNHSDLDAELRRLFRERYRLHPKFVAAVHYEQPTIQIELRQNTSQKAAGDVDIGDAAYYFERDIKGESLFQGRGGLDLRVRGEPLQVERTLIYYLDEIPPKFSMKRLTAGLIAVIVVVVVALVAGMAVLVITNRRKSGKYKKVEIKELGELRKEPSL
How it was run: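 Cells were blocked with goat serum at 4° C for 30 min, then incubated with serially diluted bispecific antibodies or hIgG1LALA control at 4° C for 30 min. Bound antibody was detected with Alexa-647 anti-human IgG (4° C, 30 min, dark) and read by flow cytometry.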

EC50 (read off the curve) [1]: ~8 ng/mL
EC50 (read off the curve) [2]: ~1 µg/mL
B1: Cross311×Trop2 (bispecific antibody)
scFv: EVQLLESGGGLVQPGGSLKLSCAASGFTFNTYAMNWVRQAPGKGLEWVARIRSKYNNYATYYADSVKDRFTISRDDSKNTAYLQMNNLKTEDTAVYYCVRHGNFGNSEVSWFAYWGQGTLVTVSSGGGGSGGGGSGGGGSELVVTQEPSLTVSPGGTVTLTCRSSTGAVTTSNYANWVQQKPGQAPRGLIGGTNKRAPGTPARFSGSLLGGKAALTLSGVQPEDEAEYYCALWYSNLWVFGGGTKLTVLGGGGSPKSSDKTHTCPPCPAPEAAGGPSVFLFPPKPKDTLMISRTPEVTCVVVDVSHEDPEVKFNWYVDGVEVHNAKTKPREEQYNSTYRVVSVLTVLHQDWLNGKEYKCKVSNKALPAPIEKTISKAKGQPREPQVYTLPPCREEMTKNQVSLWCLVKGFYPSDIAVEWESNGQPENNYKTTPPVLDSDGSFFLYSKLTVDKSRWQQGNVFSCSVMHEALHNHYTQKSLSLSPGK
heavy: QVQLQQSGSELKKPGASVKVSCKASGYTFTNYGMNWVKQAPGQGLKWMGWINTYTGEPTYTDDFKGRFAFSLDTSVSTAYLQISSLKADDTAVYFCARGGFGSSYWYFDVWGQGSLVTVSSASTKGPSVFPLAPSSKSTSGGTAALGCLVKDYFPEPVTVSWNSGALTSGVHTFPAVLQSSGLYSLSSVVTVPSSSLGTQTYICNVNHKPSNTKVDKKVEPKSSDKTHTCPPCPAPEAAGGPSVFLFPPKPKDTLMISRTPEVTCVVVDVSHEDPEVKFNWYVDGVEVHNAKTKPREEQYNSTYRVVSVLTVLHQDWLNGKEYKCKVSNKALPAPIEKTISKAKGQPREPQVCTLPPSREEMTKNQVSLSCAVKGFYPSDIAVEWESNGQPENNYKTTPPVLDSDGSFFLVSKLTVDKSRWQQGNVFSCSVMHEALHNHYTQKSLSLSPGK
light: DIQLTQSPSSLSASVGDRVSITCKASQDVSIAVAWYQQKPGKAPKLLIYSASYRYTGVPDRFSGSGSGTDFTLTISSLQPEDFAVYYCQQHYITPLTFGAGTKVEIKRTVAAPSVFIFPPSDEQLKSGTASVVCLLNNFYPREAKVQWKVDNALQSGNSQESVTEQDSKDSTYSLSSTLTLSKADYEKHKVYACEVTHQGLSSPVTKSFNRGEC
